# Laboratory results published in US20220062373A1.
# Biological target: Endogenous murine CD206 on M2-polarized bone marrow-derived macrophages (mouse) (UniProt Q61830)
# Test: LC-MS/MS proteomics of CD206 complexes pulled down with biotinylated RP-182 from M2 BMDMs
# Chain of Endogenous murine CD206 on M2-polarized bone marrow-derived macrophages (mouse) (Q61830 20-1456): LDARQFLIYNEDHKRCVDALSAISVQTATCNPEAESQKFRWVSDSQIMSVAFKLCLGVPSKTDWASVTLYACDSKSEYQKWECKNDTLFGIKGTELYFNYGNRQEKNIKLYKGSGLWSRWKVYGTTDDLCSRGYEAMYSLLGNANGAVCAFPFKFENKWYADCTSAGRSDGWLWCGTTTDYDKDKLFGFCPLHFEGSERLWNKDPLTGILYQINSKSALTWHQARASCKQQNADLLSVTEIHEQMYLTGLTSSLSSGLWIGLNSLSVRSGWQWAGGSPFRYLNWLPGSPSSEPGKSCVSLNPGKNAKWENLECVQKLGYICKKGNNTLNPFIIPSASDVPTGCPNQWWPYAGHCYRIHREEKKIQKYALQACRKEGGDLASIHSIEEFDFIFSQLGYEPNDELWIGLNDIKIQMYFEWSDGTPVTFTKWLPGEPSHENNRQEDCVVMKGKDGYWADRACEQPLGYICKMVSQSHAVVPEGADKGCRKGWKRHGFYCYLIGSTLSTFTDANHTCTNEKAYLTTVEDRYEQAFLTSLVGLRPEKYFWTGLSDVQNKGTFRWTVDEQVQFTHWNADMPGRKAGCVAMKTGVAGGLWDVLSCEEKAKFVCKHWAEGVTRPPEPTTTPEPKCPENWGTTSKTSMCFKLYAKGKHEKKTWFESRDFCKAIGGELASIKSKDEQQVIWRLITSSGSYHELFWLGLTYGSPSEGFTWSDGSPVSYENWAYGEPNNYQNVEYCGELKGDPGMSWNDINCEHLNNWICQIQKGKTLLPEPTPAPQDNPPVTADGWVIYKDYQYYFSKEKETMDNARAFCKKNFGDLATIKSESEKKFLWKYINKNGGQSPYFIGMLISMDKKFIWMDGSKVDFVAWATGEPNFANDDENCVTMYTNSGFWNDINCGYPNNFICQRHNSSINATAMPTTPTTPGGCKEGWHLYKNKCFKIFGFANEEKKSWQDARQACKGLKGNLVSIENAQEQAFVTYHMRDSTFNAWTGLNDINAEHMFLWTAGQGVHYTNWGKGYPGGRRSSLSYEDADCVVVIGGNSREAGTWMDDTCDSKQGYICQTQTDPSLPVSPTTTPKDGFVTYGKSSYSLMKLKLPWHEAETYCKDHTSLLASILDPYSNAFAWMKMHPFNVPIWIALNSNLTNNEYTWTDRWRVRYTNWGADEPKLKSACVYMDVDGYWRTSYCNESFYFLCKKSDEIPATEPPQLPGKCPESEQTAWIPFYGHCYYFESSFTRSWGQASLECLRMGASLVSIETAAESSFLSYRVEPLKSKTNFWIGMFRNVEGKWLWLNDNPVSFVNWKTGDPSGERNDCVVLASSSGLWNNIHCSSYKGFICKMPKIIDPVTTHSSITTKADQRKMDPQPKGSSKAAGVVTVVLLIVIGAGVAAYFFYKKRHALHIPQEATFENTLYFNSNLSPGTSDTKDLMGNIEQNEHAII
row,fold enriched in CD206 complexes against control,Substance
1,9 fold,IQ motif containing GTPase activating protein 1 (IQGAP1) (from UniProt Q9JKF1 2-1657)
2,76 fold,IQ motif containing GTPase activating protein 2 (IQGAP2) (from UniProt Q3UQ44 1-1575)
